Test [1] deals with full-length recombinant human RAD51 protein, N-terminal 6xHis-tagged (human) (UniProt Q06609). The test is described as follows: MST.
For test [2] the target is unchanged. The test is described as follows: static light scattering.
The target is the same in test [3].
The target in test [4] is T1, full-length recombinant human RAD51 protein, N-terminal 6xHis-tagged (human), Q06609.
T1 chain: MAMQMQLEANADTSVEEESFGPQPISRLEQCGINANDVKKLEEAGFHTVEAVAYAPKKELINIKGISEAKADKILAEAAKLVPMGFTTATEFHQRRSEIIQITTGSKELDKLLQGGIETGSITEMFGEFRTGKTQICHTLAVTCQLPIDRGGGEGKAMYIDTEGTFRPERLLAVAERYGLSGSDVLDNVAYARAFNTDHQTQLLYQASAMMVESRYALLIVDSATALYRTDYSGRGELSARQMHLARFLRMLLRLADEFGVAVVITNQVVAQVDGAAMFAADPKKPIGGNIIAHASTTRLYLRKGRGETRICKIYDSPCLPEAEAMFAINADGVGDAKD
The test is described as follows: static light scattering. The conditions noted are these: remark: other sources report otherwise.

One may read the EC50 as the concentration giving half of the maximal effect. In the case of “BRC4 peptide (fourth BRC repeat of the BRCA2 protein)”, the figures for the concentration for a half-maximal effect (EC50) in test [1] and in test [2] were 60 to 80 nM and 4000 to 5000 nM, respectively.

For “Myristoylated BRC4 (BRC4-ss-Myr) (peptide)”, in test [3], the IC50 of inhibition of homologous recombination in BxPC-3 cells was determined as 5 µM.

B1: full-length recombinant human RAD51 protein, N-terminal 6xHis-tagged, Q06609 1-339 (natural protein)
chain: MAMQMQLEANADTSVEEESFGPQPISRLEQCGINANDVKKLEEAGFHTVEAVAYAPKKELINIKGISEAKADKILAEAAKLVPMGFTTATEFHQRRSEIIQITTGSKELDKLLQGGIETGSITEMFGEFRTGKTQICHTLAVTCQLPIDRGGGEGKAMYIDTEGTFRPERLLAVAERYGLSGSDVLDNVAYARAFNTDHQTQLLYQASAMMVESRYALLIVDSATALYRTDYSGRGELSARQMHLARFLRMLLRLADEFGVAVVITNQVVAQVDGAAMFAADPKKPIGGNIIAHASTTRLYLRKGRGETRICKIYDSPCLPEAEAMFAINADGVGDAKD
The term stoichiometry N denotes a count of units in the complex or per binding partner. As to B1, the stoichiometry N in test [4] worked out at 40 protomers.
